{"source": "patent US20170296650A1", "about": "(Novartis, published 2017)", "key": {"[1]": {"target": "T1, hCMV glycoprotein B (gB; HEK293T transfectant) (hCMV, UniProt P06473 32-906)", "T1 construct": "whole, on cells; in the functional rows it stands for gB on virions or transduced cells of the strain or isolate named in the readout", "T1 sequence (P06473 32-906 limits assumed)": "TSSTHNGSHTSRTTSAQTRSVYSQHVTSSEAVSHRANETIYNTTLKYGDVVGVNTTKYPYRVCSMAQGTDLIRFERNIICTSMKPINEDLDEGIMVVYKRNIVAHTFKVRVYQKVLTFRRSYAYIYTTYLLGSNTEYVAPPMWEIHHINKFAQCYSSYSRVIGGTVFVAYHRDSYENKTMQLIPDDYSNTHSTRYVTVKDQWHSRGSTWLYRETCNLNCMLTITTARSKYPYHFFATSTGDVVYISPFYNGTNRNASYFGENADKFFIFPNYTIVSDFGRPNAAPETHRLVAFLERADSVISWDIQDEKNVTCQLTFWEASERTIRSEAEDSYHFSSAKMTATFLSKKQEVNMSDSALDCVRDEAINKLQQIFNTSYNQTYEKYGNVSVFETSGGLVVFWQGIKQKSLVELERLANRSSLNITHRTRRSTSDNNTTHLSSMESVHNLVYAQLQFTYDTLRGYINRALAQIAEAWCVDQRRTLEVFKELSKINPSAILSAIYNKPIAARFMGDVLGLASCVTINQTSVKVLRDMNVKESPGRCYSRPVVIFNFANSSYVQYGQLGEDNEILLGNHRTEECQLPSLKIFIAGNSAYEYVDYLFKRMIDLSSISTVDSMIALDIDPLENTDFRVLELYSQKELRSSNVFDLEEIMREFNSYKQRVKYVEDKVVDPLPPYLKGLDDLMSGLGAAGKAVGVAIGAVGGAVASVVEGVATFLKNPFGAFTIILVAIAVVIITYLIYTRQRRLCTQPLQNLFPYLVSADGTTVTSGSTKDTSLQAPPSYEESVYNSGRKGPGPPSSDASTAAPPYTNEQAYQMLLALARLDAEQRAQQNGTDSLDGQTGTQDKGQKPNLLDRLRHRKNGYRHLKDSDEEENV", "assay": "cell competition; competitor 10C6-biotin"}, "[2]": {"target": "T1, hCMV glycoprotein B (gB; HEK293T …)", "assay": "cell competition; competitor 7H3-biotin"}, "[3]": {"target": "T1, hCMV glycoprotein B (gB; HEK293T …)", "assay": "cell-based or functional assay"}, "[4]": {"target": "T1, hCMV glycoprotein B (gB; HEK293T …)", "assay": "cell competition; competitor 5F1-biotin"}, "[5]": {"target": "T1, hCMV glycoprotein B (gB; HEK293T …)", "assay": "cell-based or functional assay", "remark": "listed apart in the source"}, "[6]": {"target": "T1, hCMV glycoprotein B (gB; HEK293T …)", "assay": "cell-based or functional assay", "remark": "listed apart in the source"}, "[7]": {"target": "T1, hCMV glycoprotein B (gB; HEK293T …)", "assay": "cell competition; competitor 4H9-biotin"}, "[8]": {"target": "T1, hCMV glycoprotein B (gB; HEK293T …)", "assay": "cell competition; competitor 6B4-biotin"}, "[9]": {"target": "T1, hCMV glycoprotein B (gB; HEK293T …)", "assay": "cell competition; competitor 2B11-biotin"}}}
{"binder": "6B4 (antibody, V domains shown, human IgG; also called 6B4-biotin) VH: QVQLVESGGGVVQPGRSLRLSCAASGFRFNEFNMHWVRQAPGKGLEWVAVISIDGRHKYNADSVEGRFTISRDNSRNTLYLQMNSLRVEDTALYYCVTDGKAVDGFSGILEFWGQGTPVTVST VL: EIVLTQSPATLSLSPGERATLSCWASQSVGGYLAWYQQKPGQAPRLLIYDASIRATGIPARFSGSGSGTHFTLTINSLEPEDFAVYYCQQRNNWPPLTFGGGTKVEIK", "values": [{"measurement": "Inhibition of binding (%)", "setting": "[1]", "result": 0, "unit": "%"}, {"measurement": "Inhibition of binding (%)", "setting": "[2]", "result": 0, "unit": "%"}, {"measurement": "50% neutralization VR1814, ARPE", "setting": "[3]", "result": "≤ 2", "unit": "µg/mL"}, {"measurement": "50% neutralization VR1814, MRC-9", "setting": "[3]", "result": "≤ 2", "unit": "µg/mL"}, {"measurement": "Inhibition of binding (%)", "setting": "[4]", "result": 0, "unit": "%"}, {"measurement": "50% neutralization VR1814, BM-MSC", "setting": "[5]", "result": 2, "unit": "µg/mL"}, {"measurement": "50% neutralization VR1814, Mo-DC", "setting": "[5]", "result": 0.11, "unit": "µg/mL"}, {"measurement": "90% neutralization VR1814, ARPE", "setting": "[6]", "result": 0.15, "unit": "µg/mL"}, {"measurement": "90% neutralization VR1814, MRC-9", "setting": "[6]", "result": 1, "unit": "µg/mL"}, {"measurement": "Inhibition of binding (%)", "setting": "[7]", "result": 0, "unit": "%"}, {"measurement": "Inhibition of binding (%)", "setting": "[8]", "result": 100, "unit": "%"}, {"measurement": "Inhibition of binding (%)", "setting": "[9]", "result": 0, "unit": "%"}]}
{"binder": "5F1 (antibody, V domains shown, human IgG; also called 5F1-biotin) VH: AVQLVESGGGLAQPGRSLRLSCKVSGFTFSSYEMNWVRQAPGKGLEWIAYIDFTGSTIYYADSVKGRFTISRDTARNSLYLQMNKLRVEDTAVYYCVRDAGRWGTSWYYFDYWGQGTLVTVSS VL: QSVLTQPPSVSGAPGQRVTISCTGLSSNIGAGYDIHWYQQIPGKAPKLLIYGNNNRPSGVPDRFSGSKSGTSVSLAITGLQAEDEADYYCQSYDSSLNGWVFGGGTRLTVL", "values": [{"measurement": "Inhibition of binding (%)", "setting": "[1]", "result": 100, "unit": "%"}, {"measurement": "Inhibition of binding (%)", "setting": "[2]", "result": 0, "unit": "%"}, {"measurement": "50% neutralization VR1814, ARPE", "setting": "[3]", "result": "≤ 2", "unit": "µg/mL"}, {"measurement": "50% neutralization VR1814, MRC-9", "setting": "[3]", "result": "≤ 2", "unit": "µg/mL"}, {"measurement": "Inhibition of binding (%)", "setting": "[4]", "result": 100, "unit": "%"}, {"measurement": "50% neutralization VR1814, BM-MSC", "setting": "[5]", "result": 0.3, "unit": "µg/mL"}, {"measurement": "50% neutralization VR1814, Mo-DC", "setting": "[5]", "result": 0.05, "unit": "µg/mL"}, {"measurement": "90% neutralization VR1814, ARPE", "setting": "[6]", "result": 0.1, "unit": "µg/mL"}, {"measurement": "90% neutralization VR1814, MRC-9", "setting": "[6]", "result": 0.5, "unit": "µg/mL"}, {"measurement": "Inhibition of binding (%)", "setting": "[7]", "result": 100, "unit": "%"}, {"measurement": "Inhibition of binding (%)", "setting": "[8]", "result": 0, "unit": "%"}, {"measurement": "Inhibition of binding (%)", "setting": "[9]", "result": 100, "unit": "%"}]}
{"binder": "10C6 (antibody, V domains shown, human IgG; also called 10C6-biotin; 1006) VH: AVQLVESGGGLAQPGRSLRLSCKVSGFSFSNFEMNWVRQAPGKGLEWIAYIDFTGSTIYYSDSVKGRFTISRDTARNSLYLQMNKLRVEDTAVYYCVRDAGRWGTSWYYFDYWGQGTLVTVSS VL: QSVLTQPPSVSGAPGQRVTISCTGLSSNIGAGYDIHWYQQIPGKAPKLLIYGNNNRPSGVPDRFSGSKSGTSVSLAITGLQAEDEADYYCQSYDSSLNGWVFGGGTRLTVL", "values": [{"measurement": "Inhibition of binding (%)", "setting": "[1]", "result": 100, "unit": "%"}, {"measurement": "Inhibition of binding (%)", "setting": "[2]", "result": 0, "unit": "%"}, {"measurement": "50% neutralization VR1814, ARPE", "setting": "[3]", "result": "≤ 2", "unit": "µg/mL"}, {"measurement": "50% neutralization VR1814, MRC-9", "setting": "[3]", "result": "≤ 2", "unit": "µg/mL"}, {"measurement": "Inhibition of binding (%)", "setting": "[4]", "result": 100, "unit": "%"}, {"measurement": "50% neutralization VR1814, BM-MSC", "setting": "[5]", "result": 0.3, "unit": "µg/mL"}, {"measurement": "50% neutralization VR1814, Mo-DC", "setting": "[5]", "result": 0.02, "unit": "µg/mL"}, {"measurement": "90% neutralization VR1814, ARPE", "setting": "[6]", "result": 0.2, "unit": "µg/mL"}, {"measurement": "90% neutralization VR1814, MRC-9", "setting": "[6]", "result": 0.75, "unit": "µg/mL"}, {"measurement": "Inhibition of binding (%)", "setting": "[7]", "result": 100, "unit": "%"}, {"measurement": "Inhibition of binding (%)", "setting": "[8]", "result": 0, "unit": "%"}, {"measurement": "Inhibition of binding (%)", "setting": "[9]", "result": 100, "unit": "%"}]}
{"binder": "4H9 (antibody, V domains shown, human IgG; also called 4H9-biotin; 4H9.6) VH: AVQLVESGGGLVRPGGSLRLSCAASGFTFSSHEMHWVRQAPGKGLEWLSYIDFTGSIIYYADSVRGRFTISRDNTKKSLFLQMNSLRDEDTALYYCARDGGRWGTSWYYFDYWGQGVLVTVSS VL: QSVLTQPPSVSGAPGQRVTITCTGSSSNFGAGYDGHWYQQLPGTAPKLLIYGSNRPSGVPDRFSGSKSGTSVSLAITGLQADDEADYYCQSYDSSLSAWVFGGGTKLTVL", "values": [{"measurement": "Inhibition of binding (%)", "setting": "[1]", "result": 100, "unit": "%"}, {"measurement": "Inhibition of binding (%)", "setting": "[2]", "result": 0, "unit": "%"}, {"measurement": "50% neutralization VR1814, ARPE", "setting": "[3]", "result": "≤ 2", "unit": "µg/mL"}, {"measurement": "50% neutralization VR1814, MRC-9", "setting": "[3]", "result": "≤ 2", "unit": "µg/mL"}, {"measurement": "Inhibition of binding (%)", "setting": "[4]", "result": 100, "unit": "%"}, {"measurement": "90% neutralization VR1814, ARPE", "setting": "[6]", "result": 0.4, "unit": "µg/mL"}, {"measurement": "90% neutralization VR1814, MRC-9", "setting": "[6]", "result": 10, "unit": "µg/mL"}, {"measurement": "Inhibition of binding (%)", "setting": "[7]", "result": 100, "unit": "%"}, {"measurement": "Inhibition of binding (%)", "setting": "[8]", "result": 0, "unit": "%"}, {"measurement": "Inhibition of binding (%)", "setting": "[9]", "result": 100, "unit": "%"}]}
